From patent US20050079543A1 (ROCKEFELLER UNIVERSITY, published 2005) come the findings set out here.

The target of data set [1] is T1, Stat91L, activated (from IFN-γ-treated C91L or Cmx cells) (human, UniProt P42224 2-750, activated by IFN-γ treatment of the cells; phosphotyrosine at 701 as stated for Stat91).
T1 construct: Expressed in U3A cells that lack Stat91/84; also called long form of Stat91; MNC-91L product; not shown: C-terminal tag of 34 amino acids encoded by the pMNC vector
T1 sequence: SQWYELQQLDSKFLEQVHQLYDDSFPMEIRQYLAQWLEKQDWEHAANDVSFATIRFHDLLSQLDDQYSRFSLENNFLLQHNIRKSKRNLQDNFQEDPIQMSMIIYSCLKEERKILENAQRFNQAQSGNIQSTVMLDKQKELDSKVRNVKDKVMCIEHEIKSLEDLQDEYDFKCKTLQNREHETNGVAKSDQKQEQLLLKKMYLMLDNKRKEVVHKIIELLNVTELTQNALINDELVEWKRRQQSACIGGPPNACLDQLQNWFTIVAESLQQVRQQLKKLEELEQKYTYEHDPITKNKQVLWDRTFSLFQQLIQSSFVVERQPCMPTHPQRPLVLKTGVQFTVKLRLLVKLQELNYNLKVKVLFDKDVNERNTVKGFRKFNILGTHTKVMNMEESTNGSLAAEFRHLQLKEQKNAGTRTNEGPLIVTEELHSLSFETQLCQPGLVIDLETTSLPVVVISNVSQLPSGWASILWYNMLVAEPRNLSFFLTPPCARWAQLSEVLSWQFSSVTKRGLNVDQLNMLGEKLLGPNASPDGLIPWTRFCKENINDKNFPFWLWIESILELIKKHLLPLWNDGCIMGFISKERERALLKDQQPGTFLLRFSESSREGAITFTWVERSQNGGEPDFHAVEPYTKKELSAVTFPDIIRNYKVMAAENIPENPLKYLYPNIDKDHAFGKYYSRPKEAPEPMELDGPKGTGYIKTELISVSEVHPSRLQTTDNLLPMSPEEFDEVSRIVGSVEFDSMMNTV
Description: gel mobility shift with extracts of cells that express both proteins, with antisera. The procedure: (§1) Mobility shift analysis was performed with extracts from these stable cell lines (FIG. 18B). Extracts of IFN-γ-treated C84 cells produced a faster migrating gel shift band than extracts of treated C91L cells. Most importantly, extracts from IFN-γ-treated Cmx cells expressing both Stat84 and Stat91L proteins formed an additional intermediate gel shift band. Anti-91, an antiserum against the C-terminal 38 amino acids of Stat91 (12) that are absent in Stat84, specifically removed the top two shift bands seen with the Cmx extracts. Anti-91, an antiserum against amino acids 609 to 716 (15) that recognizes both Stat91L and Stat84, proteins inhibited the binding of all three shift bands. Thus, the middle band formed by extracts of the Cmx cells is clearly identified as a heterodimer of Stat84 and Stat91L. We concluded that both Stat91 and Stat84 bind DNA as homodimers and, if present in the same cell, will form heterodimers.

Data set [2] deals with the molecule itself. Description: gel mobility shift with extracts of C84 cells. The procedure: as §1

B1: Stat84, activated (from IFN-γ-treated C84 or Cmx cells) (other)
chain: SQWYELQQLDSKFLEQVHQLYDDSFPMEIRQYLAQWLEKQDWEHAANDVSFATIRFHDLLSQLDDQYSRFSLENNFLLQHNIRKSKRNLQDNFQEDPIQMSMIIYSCLKEERKILENAQRFNQAQSGNIQSTVMLDKQKELDSKVRNVKDKVMCIEHEIKSLEDLQDEYDFKCKTLQNREHETNGVAKSDQKQEQLLLKKMYLMLDNKRKEVVHKIIELLNVTELTQNALINDELVEWKRRQQSACIGGPPNACLDQLQNWFTIVAESLQQVRQQLKKLEELEQKYTYEHDPITKNKQVLWDRTFSLFQQLIQSSFVVERQPCMPTHPQRPLVLKTGVQFTVKLRLLVKLQELNYNLKVKVLFDKDVNERNTVKGFRKFNILGTHTKVMNMEESTNGSLAAEFRHLQLKEQKNAGTRTNEGPLIVTEELHSLSFETQLCQPGLVIDLETTSLPVVVISNVSQLPSGWASILWYNMLVAEPRNLSFFLTPPCARWAQLSEVLSWQFSSVTKRGLNVDQLNMLGEKLLGPNASPDGLIPWTRFCKENINDKNFPFWLWIESILELIKKHLLPLWNDGCIMGFISKERERALLKDQQPGTFLLRFSESSREGAITFTWVERSQNGGEPDFHAVEPYTKKELSAVTFPDIIRNYKVMAAENIPENPLKYLYPNIDKDHAFGKYYSRPKEAPEPMELDGPKGTGYIKTELISVSEV
modifications: activated by IFN-γ treatment of the cells (tyrosine phosphorylation; Tyr-701 is stated for Stat91)
notes: Expressed in U3A cells that lack Stat91/84; also called MNC-84 product
On to B1, for which the binding result in data set [1] and in data set [2] was “binds” throughout.
